In article PMC5686067, “Structural basis of adaptor-mediated protein degradation by the tail-specific PDZ-protease Prc” (Nature Communications, 2017):
Substitutions are numbered along the chain they refer to. In names and notes the source's numbering stands.

B1: sNlpI (soluble NlpI without its lipoprotein signal peptide) (natural protein, E. coli, UniProt P0AFB1 20-294, looked up)
chain: SNTSWRKSEVLAVPLQPTLQQEVILARMEQILASRALTDDERAQLLYERGVLYDSLGLRALARNDFSQALAIRPDMPEVFNYLGIYLTQAGNFDAAYEAFDSVLELDPTYNYAHLNRGIALYYGGRDKLAQDDLLAFYQDDPNDPFRSLWLYLAEQKLDEKQAKEVLKQHFEKSDKEQWGWNIVEFYLGNISEQTLMERLKADATDNTSLAEHLSETNFYLGKYYLSLGDLDSATALFKLAVANNVHNFVEHRYALLELSLLGQDQDDLAESDQQ
notes: NlpI, E. coli outer-membrane lipoprotein with four tetratricopeptide repeats, residues S20-Q294, without the lipoprotein signal peptide; Homodimer by AUC and in the crystal. pET28a vector with N-terminal His-tag; no removal of the tag is described; also called WT-NlpI; wild-type sNlpI; source: E. coli BL21(DE3), purified (Ni-NTA, MonoQ, Superdex 200); cleared cell lysate in the pull-down; not …
B2: sNlpI-R82E (natural protein, E. coli, UniProt P0AFB1 20-294, looked up)
chain: B1 chain with R63E
notes: NlpI, E. coli, residues S20-Q294 without the signal peptide, R82E in helix TPR1b; source: E. coli BL21(DE3), purified (Ni-NTA, MonoQ, Superdex 200)
B3: sNlpI-L38A (natural protein, E. coli, UniProt P0AFB1 20-294, looked up)
chain: B1 chain with L19A
notes: NlpI, E. coli, residues S20-Q294 without the signal peptide, L38A in helix h1; source: E. coli BL21(DE3), purified (Ni-NTA, MonoQ, Superdex 200)
B4: sNlpI-L38C (natural protein, E. coli, UniProt P0AFB1 20-294, looked up)
chain: B1 chain with L19C
notes: NlpI, E. coli, residues S20-Q294 without the signal peptide, L38C in helix h1; source: E. coli BL21(DE3), purified (Ni-NTA, MonoQ, Superdex 200)

Molecular target: the molecule itself
Experiment: AUC; sedimentation velocity, absorbance optics, 20 mM Tris-HCl pH 8.0, 100 mM NaCl, 2 mM DTT, 20 °C, c(s) model in Sedfit

Protein | stoichiometry N
B1 | 2
B2 | 2
B3 | 2
B4 | 2
